According to the supplement of paper PMC10567573:

B1: ACSBG2 (parent)
chain: TPMTIPEFFRESVNRFGTYPALAS

Variants of: B1
Experiment: protein stability index of a GFP-peptide fusion (GPS, HEK-293T) (PSI 1-6); higher = more stable
Conditions: c terminus: a fixed tail appended
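Further: lentivirally expressed fusions sorted by FACS into six bins by GFP to DsRed ratio, PSI derived from sequencing read proportions per bin multiplied by bin number.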

| Variant | protein stability index |
| --- | --- |
| TPMTIPEFFRESVNRFGFYPALAS | 1.9 |
| TPMTIPEFFRESVNRFGQYPALAS | 2.02 |
| TPMTIPEFFRESVNRFGDYPALAS | 2.9 |
| TPMTIPEFFRESVNRFGCYPALAS | 2.35 |
| TPMTIPEFFRESVNRFGLYPALAS | 2.31 |
| TPMTIPEFFRESVNRFGVYPALAS | 2.29 |
| TPMTIPEFFRESVNRFGKYPALAS | 2.77 |
| TPMTIPEFFRRSVNRFGTYPALAS | 1.99 |
| TPMTIPEFFRDSVNRFGTYPALAS | 2.58 |
| TPMTIPEFFRHSVNRFGTYPALAS | 1.84 |
| TPMTIPEFFRPSVNRFGTYPALAS | 1.72 |
| TPMTIPEFFRGSVNRFGTYPALAS | 1.89 |
| TPMTIPEFFRMSVNRFGTYPALAS | 2.76 |
| TPMTIPEFFRYSVNRFGTYPALAS | 1.68 |
| TPMTIPEFFRVSVNRFGTYPALAS | 1.99 |
| TPPTIPEFFRESVNRFGTYPALAS | 2.02 |
| TPLTIPEFFRESVNRFGTYPALAS | 2.09 |
| TPITIPEFFRESVNRFGTYPALAS | 2.5 |
| TPTTIPEFFRESVNRFGTYPALAS | 2.55 |
| TPNTIPEFFRESVNRFGTYPALAS | 2.62 |
| TPQTIPEFFRESVNRFGTYPALAS | 3.21 |
| TPMTIPEFFRESVNRFGTYPALWS | 2.55 |
| TPMTIPEFFRESVNRFGTYPALSS | 2.56 |
| TPMTIPEFFRESVNRFGTYPALTS | 2.33 |

| Variant | protein stability index |
| --- | --- |
| TPMTIPEFFRESVNRFGTYPALQS | 2.69 |
| TPMTIPEFFRESVNRFGTYPALYS | 1.82 |
| TPMTIPEFFRESVNRFGTYPALES | 2.61 |
| TPMTIPEFFRESVNRFGTYPALMS | 1.97 |
| TPMTIPEFFRESVNRFGTYPALGS | 2.2 |
| TPMTIPEFFRESVNRFGTYPALDS | 2.88 |
| TPMTIPEFFRESVDRFGTYPALAS | 2.65 |
| TPMTIPEFFRESVSRFGTYPALAS | 2.51 |
| TPMTIPEFFRESVQRFGTYPALAS | 2.24 |
| TPMTIPEFFRESVMRFGTYPALAS | 2.39 |
| TPMTIPEFFRESVYRFGTYPALAS | 1.88 |
| TPMTIPEFFRESVTRFGTYPALAS | 2.23 |
| TPMTIPEFFRESVKRFGTYPALAS | 2.54 |
| TPMTIPEFFRESVIRFGTYPALAS | 1.83 |
| TPMTIPEIFRESVNRFGTYPALAS | 2.42 |
| TPMTIPEDFRESVNRFGTYPALAS | 3.19 |
| TPMTIPEPFRESVNRFGTYPALAS | 2.72 |
| TPMTIPEGFRESVNRFGTYPALAS | 3.02 |
| TPMTIPEAFRESVNRFGTYPALAS | 2.99 |
| TPMTIPEFFRESVNCFGTYPALAS | 2.12 |
| TPMTIPEFFRESVNIFGTYPALAS | 2.24 |
| TPMTIPEFFRESVNNFGTYPALAS | 2.5 |
| TPMTIPEFFRESVNHFGTYPALAS | 2.14 |
| TPMTIPEFFRESVNYFGTYPALAS | 1.99 |

| Variant | protein stability index |
| --- | --- |
| TPMTIPEFFRESVNLFGTYPALAS | 2.38 |
| TPMTIPEFFRESVNDFGTYPALAS | 2.78 |
| TPMTIPEFFRESVNGFGTYPALAS | 1.97 |
| TPMTIPEFLRESVNRFGTYPALAS | 1.76 |
| TPMTIPEFVRESVNRFGTYPALAS | 2.36 |
| TPMTIPEFERESVNRFGTYPALAS | 3.41 |
| TPMTIPEFHRESVNRFGTYPALAS | 2.98 |
| TPMTIPEFSRESVNRFGTYPALAS | 2.71 |
| TPMTIPEFNRESVNRFGTYPALAS | 3.16 |
| TPMTIPEFIRESVNRFGTYPALAS | 2.27 |
| TIMTIPEFFRESVNRFGTYPALAS | 1.44 |
| TLMTIPEFFRESVNRFGTYPALAS | 1.93 |
| TAMTIPEFFRESVNRFGTYPALAS | 2 |
| TDMTIPEFFRESVNRFGTYPALAS | 2.65 |
| TNMTIPEFFRESVNRFGTYPALAS | 2.2 |
| TRMTIPEFFRESVNRFGTYPALAS | 2.12 |
| TSMTIPEFFRESVNRFGTYPALAS | 2.41 |
| TPMTIPEFFREEVNRFGTYPALAS | 2.69 |
| TPMTIPEFFRERVNRFGTYPALAS | 2.25 |
| TPMTIPEFFREKVNRFGTYPALAS | 2.17 |
| TPMTIPEFFREFVNRFGTYPALAS | 1.66 |
| TPMTIPEFFRESVNRFWTYPALAS | 2.12 |
| TPMTIPEFFRESVNRFDTYPALAS | 2.76 |
| TPMTIPEFFRESVNRFRTYPALAS | 2.42 |

| Variant | protein stability index |
| --- | --- |
| TPMTIPEFFRESVNRFFTYPALAS | 1.8 |
| TPMTIPEFFRESVNRFETYPALAS | 2.35 |
| TPMTIPEFFRESVNRFNTYPALAS | 2.34 |
| TPMTIPEFFRESVNRFMTYPALAS | 2.17 |
| TPMTIPEFFRESHNRFGTYPALAS | 2.59 |
| TPMTIPEFFRESYNRFGTYPALAS | 2.64 |
| TPMTIPEFFRESWNRFGTYPALAS | 1.76 |
| TPMTIPEFFRESGNRFGTYPALAS | 2.2 |
| TPMTIPEFFRESQNRFGTYPALAS | 2.28 |
| TPMTIPEFFRESINRFGTYPALAS | 2.56 |
| TPMTIPEFFRESTNRFGTYPALAS | 2.98 |
| TPMTIPEFFRESMNRFGTYPALAS | 2.41 |
| TPMTIPEFFRESSNRFGTYPALAS | 2.44 |
| TPMTIPEFFRESPNRFGTYPALAS | 2.43 |
| TPMTEPEFFRESVNRFGTYPALAS | 2.84 |
| TPMTSPEFFRESVNRFGTYPALAS | 2.51 |
| TPMTMPEFFRESVNRFGTYPALAS | 2.37 |
| TPMTTPEFFRESVNRFGTYPALAS | 2.67 |
| TPMTDPEFFRESVNRFGTYPALAS | 2.7 |
| TPMTNPEFFRESVNRFGTYPALAS | 2.39 |
| TPMTPPEFFRESVNRFGTYPALAS | 2.5 |
| TPMTKPEFFRESVNRFGTYPALAS | 2.19 |
